Data: the supplement of paper PMC6755084

Tested on: F1*sub RNA substrate (template-directed ligation)
Test: fraction ligated after 30 min (ligated reads / total reads); higher = more ligase activity; sequences stand for … in GAGACCGCAACTGAAAAGTTGT…AGTTCTGCACGTAGAAGCAAAAGGC
Settings: 42 °C
Method in brief: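 Oligo-pool templates underwent PCR amplification, T7 transcription and gel purification to yield ribozyme variants. Gel-separated ligated and unligated bands were converted to complementary DNA with barcoded primers and sequenced on a MiSeq, keeping core bases of quality ≥20. The ratio of ligated reads to total reads gave the fraction ligated for every variant.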

| Sequence | fraction ligated |
| --- | --- |
| TATCACTTGTCGTAAGACACTTTGGGGGTTGA [2d289] | 0.0225 |
| TATCACTTTCGTAAACATTTGGATGGGTTGA [3d1521] | 0.787 |
| TATACTTTCGTAAGACATTTGGATGGGTTGA [3d804] | 0.754 |
| ATCACTTGTCGTAAGACACTTTGGATGGGTT [3d275] | 0.392 |
| TATCACTGTTAAGACACTTTGGATGGGTTGA [3d1343] | 0.828 |
| TATACTTGTGTAGACACTTTGGATGGGTTGA [3d830] | 0.776 |
| TATCACTTGTCGTAAGCCTTTGGAGGGTTGA [3d2117] | 0.252 |
| TATCACTTGTCGTAAGACATTGGATGGGTTG [3d2213] | 0.797 |
| TTCACTTGTCGTAGACCTTTGGATGGGTTGA [3d433] | 0.751 |
| TATACTTGTCGTAAGCACTTTGATGGGTTGA [3d897] | 0.703 |
| TATACTTTCGTAAGACCTTTGGATGGGTTGA [3d803] | 0.53 |
| TATCACGTCGTAGACACTTTGGATGGGTTGA [3d1298] | 0.801 |
| TATCACTTGTCGTAAGACCTTTGGATGGGTTG [2d268] | 0.828 |
| TATCACTTGCGTAAGACACTTGGTGGGTTGA [3d1683] | 0.139 |
| TTCACTTGTCTAAGACACTTTGGAGGGTTGA [3d412] | 0.154 |
| TATCACTGTCTAAGACACTTTGGAGGGTTGA [3d1368] | 0.102 |
| ATCCTTGTCGTAAGACATTTGGATGGGTTGA [3d78] | 0.725 |
| TATCACTTGTCGTAAGACACTTTGGAGGGTTG [2d295] | 0.0513 |
| ATCACTTTCGTAAGCACTTTGGATGGGTTGA [3d129] | 0.766 |
| TATCACTTGTGTAAGACCTTTGGATGGGTTG [3d1778] | 0.812 |
| TATCACTTGTCTAAGAACTTTGGATGGGTTG [3d1863] | 0.782 |
| TATCACTTGTCGTAAGAACTTTATGGGTTGA [3d2166] | 0.067 |
| TATCCTTGTCTAAGACACTTTGGATGGTTGA [3d1026] | 0.047 |

| Sequence | fraction ligated |
| --- | --- |
| TAACTTGTCGTAAGACACTTGGATGGGTTGA [3d521] | 0.266 |
| TATCACTTGTCGTAAGACACTTTGGAGGGTT [3d2279] | 0.0132 |
| TTCACTTGTCGTAAGACCTTTGATGGGTTGA [3d471] | 0.164 |
| TATCCTTGCGAAGACACTTTGGATGGGTTGA [3d986] | 0.806 |
| TATCACTTGTCGTAAGAACTTTGGTGGGTTG [3d2175] | 0.0265 |
| TATCACTTGTCTAAGCACTTTGGATGGGTTG [3d1855] | 0.75 |
| TATCACTTGTCGTAAACACTTTGGATGGTTA [3d2101] | 0.169 |
| TATACTTTGTAAGACACTTTGGATGGGTTGA [3d796] | 0.74 |
| TATCATTGTCTAAGACACTTTGGTGGGTTGA [3d1196] | 0.222 |
| TATCACTTTCGTAGACACTTGGATGGGTTGA [3d1512] | 0.752 |
| TATCACTTGTGAAGACCTTTGGATGGGTTGA [3d1722] | 0.823 |
| TATACTTGCGAAGACACTTTGGATGGGTTGA [3d814] | 0.649 |
| TTCACTTGTCGTAAGCACTTTGGATGGGTTGA [2d36] | 0.771 |
| ACACTTGTCGTAAGACACTTGGATGGGTTGA [3d39] | 0.157 |
| TTCACTGTCTAAGACACTTTGGATGGGTTGA [3d340] | 0.774 |
| TATCACTTGTGTAAGACACTTTGGATGGGTT [3d1808] | 0.615 |
| TATCACTTGTCGTAAGACACTTGATGGGTTA [3d2242] | 0.0227 |
| TAACTTGTCGTAAGACACTTTGGATGGGTTGA [2d47] | 0.271 |
| TATACTTGTGTAAGACACTTTGGTGGGTTGA [3d838] | 0.0565 |
| TATCACTTGTCGTAAGACACTGATGGGTTGA [3d2232] | 0.0313 |
| TTCACTTGTGTAAACACTTTGGATGGGTTGA [3d390] | 0.793 |
| TATCACTTTCGTAAGAACTTTGATGGGTTGA [3d1541] | 0.829 |
| TATCCTTTCGTAAACACTTTGGATGGGTTGA [3d972] | 0.795 |

| Sequence | fraction ligated |
| --- | --- |
| ATCACTTGTCGTAAGACCTTTGGTGGGTTGA [3d241] | 0.0169 |
| TATCCTTGTCGTAAGAACTTGGATGGGTTGA [3d1076] | 0.591 |
| TATACTTGTGTAAGACATTTGGATGGGTTGA [3d835] | 0.764 |
| TATCACTTGTTAAGAACTTTGGATGGGTTGA [3d1708] | 0.874 |
| TATCACTTGTGTAAGAACTTGGATGGGTTGA [3d1765] | 0.84 |
| TATCACTTCTAAGACACTTTGGATGGGTTGA [3d1312] | 0.774 |
| TATCATTTCGTAAGACACTTTGGATGGGTTGA [2d110] | 0.807 |
| TATCACTTTCGTAGAACTTTGGATGGGTTGA [3d1509] | 0.875 |
| TATCACTTGTGTAGACATTTGGATGGGTTGA [3d1736] | 0.883 |
| TATCATTGTGTAAGCACTTTGGATGGGTTGA [3d1176] | 0.86 |
| ATCCTTGTCGTAAGACACTTTGGATGGTTGA [3d83] | 0.138 |
| TATACTTGTCGTAAGACACTTGGTGGGTTGA [3d927] | 0.049 |
| TACACTTGTCGTAAGACACTTTGGTGGTTGA [3d728] | 0.0111 |
| TACCTTGTCGTAGACACTTTGGATGGGTTGA [3d534] | 0.697 |
| TATCACTTGTCGTAAGCACTTGGATGGTTGA [3d2132] | 0.108 |
| TTCACTTGTCGAAGACACTTGGATGGGTTGA [3d422] | 0.5 |
| TATCACTTTCGTAACACTTTGGATGGGTTGA [3d1507] | 0.796 |
| TATCACTTGTCGTGACACTTGGATGGGTTGA [3d1986] | 0.779 |
| TATCACTTTCGTAGACATTTGGATGGGTTGA [3d1511] | 0.77 |
| TATACTTGTCTAAGACACTTTGGTGGGTTGA [3d852] | 0.0368 |
| TACACTTTCGTAAACACTTTGGATGGGTTGA [3d589] | 0.0248 |
| TACACTGTGTAAGACACTTTGGATGGGTTGA [3d569] | 0.632 |
| TATCACTTGCGTAAACACTTGGATGGGTTGA [3d1642] | 0.802 |

| Sequence | fraction ligated |
| --- | --- |
| TATCACTGTCGTAAGACATTTGATGGGTTGA [3d1434] | 0.79 |
| TACATTGTGTAAGACACTTTGGATGGGTTGA [3d550] | 0.0317 |
| TATACTTGTCGTAAGACACTTTGATGGGTTG [3d937] | 0.537 |
| TATACTTGTCGTAAGACACTTTGGAGGGTTG [3d944] | 0.00819 |
| TACACTTGTCGTAGACATTTGGATGGGTTGA [3d664] | 0.464 |
| TATCCTTGTCGTAAGACTTTGGATGGGTTGA [3d1065] | 0.76 |
| ATCACTTGTCGTAAGACACTTTGATGGGTTGA [2d19] | 0.702 |
| TATCATTGCGTAAGACATTTGGATGGGTTGA [3d1164] | 0.802 |
| TATCCTTGTCGTAGACACTTTGGATGGTTGA [3d1052] | 0.0426 |
| TATACTGTCGTAAGACACTTTGGAGGGTTGA [3d792] | 0.042 |
| ATCACTTGTCGTAAACACTTTGATGGGTTGA [3d215] | 0.521 |
| TTCACTTGTCTAAGACCTTTGGATGGGTTGA [3d407] | 0.578 |
| ATCACTTGTCTAAGACACTTTGGATGGGTTG [3d184] | 0.762 |
| ATCACTTGTCGTAAGCACTTTGGATGGGTTG [3d230] | 0.731 |
| TATCACTTGTCGTAAACTTTGGATGGGTTGA [3d1993] | 0.804 |
| TATCCTTGTCGTAGACACTTGGATGGGTTGA [3d1048] | 0.782 |
| TTCACTTGCGTAAGACACTTTGGATGGTTGA [3d384] | 0.17 |
| TATCACTTGTCTAAGCCTTTGGATGGGTTGA [3d1847] | 0.776 |
| TTCACTTGTCGTAAGACACTTTGGATGGGTTA [2d45] | 0.619 |
| TATCACTTCGTAAGACACTTTGGAGGGTTGA [3d1323] | 0.0267 |
| TACATTGTCGTAAACACTTTGGATGGGTTGA [3d554] | 0.0244 |
| TATCACTTGTCGTAAACACTTTGGAGGGTTG [3d2100] | 0.0384 |
| TACACTGTCTAAGACACTTTGGATGGGTTGA [3d570] | 0.266 |

| Sequence | fraction ligated |
| --- | --- |
| TATCACTTGTCGAGCACTTTGGATGGGTTGA [3d1904] | 0.749 |
| TATCACTTGTCTAAGACACTTTGGATGGGTTG [2d207] | 0.825 |
| ATCACTTGTCGTAGACACTTTGGAGGGTTGA [3d207] | 0.211 |
| TATCATTTCGTAAGACACTTTGATGGGTTGA [3d1150] | 0.799 |
| ACACTTGTCGTAAGAACTTTGGATGGGTTGA [3d36] | 0.218 |
| TATCACTTGTCGAAGACATTTGGATGGGTTG [3d1956] | 0.801 |
| TATCACTTGCGTAAACACTTTGGAGGGTTGA [3d1645] | 0.0516 |
| TATACTTGTCGTAAGACATTTGGATGGGTTG [3d924] | 0.714 |
| TATCACTTGTCGTAAGACACTTTATGGGTTA [3d2258] | 0.0282 |
| ATCACTTGTCGTAGACACTTTGGATGGGTTA [3d209] | 0.728 |
| ATCACTTGTCGTAAGACACTTTGGATGGGTTG [2d24] | 0.769 |
| TATCACTGGTAAGACACTTTGGATGGGTTGA [3d1327] | 0.828 |
| TATCACTTGCTAAGACACTTTGGATGGGTTGA [2d164] | 0.822 |
| TATCACTTGTCGAAGCACTTTGATGGGTTGA [3d1929] | 0.736 |
| ATCCTTGTCGTAAGACACTTTGGAGGGTTGA [3d82] | 0.1 |
| ATCACTTGTCGTAAGACACTTTGGATGGTTGA [2d22] | 0.76 |
| TATCACTTGCTAAGACATTTGGATGGGTTGA [3d1605] | 0.849 |
| TATCACTTTCGTAAGACACTTTGGGGGTTGA [3d1574] | 0.0345 |
| TATCACTTGTCGTAAGACATTTGGATGGGTTA [2d274] | 0.806 |
| TTCACTTGTCGTAAGACATTTGGATGGGTTA [3d482] | 0.167 |
